B1: CD2-associated protein, residues 271 to 331; numbered along this chain, Q9Y5K6 (parent)
chain: KEYCRTLFAYEGTNEDELTFKEGEIIHLISKETGEAGWWRGELNGKEGVFPDNFAVQINEL

Variants of: B1
Experiment: abundance fitness (aPCA) (normalised: wild type 0, dead -1); higher = more abundant; growth selection in yeast, the domain comes from the species named
Conditions: Homo sapiens

Abundance fitness: each site, then its substitutions
R40: L -0.009, N -0.706, Q -0.3, S -0.609, V -0.513, W -0.377, Y -0.195
G41: A -0.703, C -1.07, D -0.616, F -0.949, H -0.746, I -1.08, L -0.747, M -1.01, N -0.881, P -0.605, Q -0.657, R -0.909, S -0.71, T -0.636, V -1.06, W -1.14, Y -0.938
E42: A 0.006, C -0.201, D -0.298, F -0.569, H -0.419, I -0.026, K -0.011, L -0.218, M -0.02, N -0.078, P -0.981, Q -0.12, R -0.099, S -0.05, T -0.185, V -0.159, W -0.313, Y -0.567
L43: A -0.285, C -0.26, D -0.458, E -0.703, F -0.475, G -0.766, H -0.522, I -0.004, K -0.156, M -0.219, N -0.468, P -0.701, Q -0.682, R -0.214, S -0.411, T -0.505, V -0.308, W -0.605, Y -0.294
N44: A -0.152, C -0.273, D -0.113, E -0.043, F -0.449, G -0.029, H -0.03, I -0.787, L -0.287, M -0.172, P -1.14, Q -0.507, R -0.073, T -0.518, V -0.791, W -0.568, Y -0.363
G45: A -0.437, C -0.322, E -0.448, F -0.408, H -0.343, I -0.453, K -0.438, L -0.858, M -0.695, N -0.359, P -0.784, Q -0.612, R -0.617, S -0.376, T -0.746, V -0.845, W -0.829
K46: A -0.134, C -0.056, D -0.39, E -0.348, G -0.924, H 0.083, I -0.309, L -0.223, M -0.235, N -0.286, P -1.05, Q -0.265, R 0.012, S -0.338, T -0.273, V -0.033, Y -0.34
E47: A -0.248, C -0.104, D -0.347, F -0.198, G -0.479, H -0.154, I 0.053, L -0.241, M -0.301, N -0.205, P -0.752, Q 0.014, R -0.02, S -0.052, T -0.029, V -0.029, W -0.601, Y -0.171
G48: A -0.65, C -1.01, D -0.695, E -0.688, F -1.05, H -0.749, I -0.725, K -0.746, L -0.753, M -0.947, N -0.998, P -0.932, Q -0.93, R -0.856, S -0.843, T -1.07, V -0.864, W -0.949, Y -1.18
V49: A -0.319, C -0.11, E -0.674, G -0.628, H -0.482, K 0.003, L -0.01, M -0.082, N -0.099, P -0.713, Q -0.302, R 0.029, S -0.297, T -0.129, W -0.111, Y -0.022
F50: A -0.539, C -0.516
